The values that follow come from patent publication US10087225B2, “Formulation of MK2 inhibitor peptides” (MOERAE MATRIX, INC., priority 2015, dated 2018).

Holding throughout (test): Kinase Profiling Assay
Type in all cases: biochemical

One assay concerns the target BTK(R28H)(h) (Homo sapiens, UniProt Q06187, R28H).
For a further assay, the target named is T1, TAO1(h) (Homo sapiens, UniProt Q7L7X3).
T1 sequence (Q7L7X3 1-1001): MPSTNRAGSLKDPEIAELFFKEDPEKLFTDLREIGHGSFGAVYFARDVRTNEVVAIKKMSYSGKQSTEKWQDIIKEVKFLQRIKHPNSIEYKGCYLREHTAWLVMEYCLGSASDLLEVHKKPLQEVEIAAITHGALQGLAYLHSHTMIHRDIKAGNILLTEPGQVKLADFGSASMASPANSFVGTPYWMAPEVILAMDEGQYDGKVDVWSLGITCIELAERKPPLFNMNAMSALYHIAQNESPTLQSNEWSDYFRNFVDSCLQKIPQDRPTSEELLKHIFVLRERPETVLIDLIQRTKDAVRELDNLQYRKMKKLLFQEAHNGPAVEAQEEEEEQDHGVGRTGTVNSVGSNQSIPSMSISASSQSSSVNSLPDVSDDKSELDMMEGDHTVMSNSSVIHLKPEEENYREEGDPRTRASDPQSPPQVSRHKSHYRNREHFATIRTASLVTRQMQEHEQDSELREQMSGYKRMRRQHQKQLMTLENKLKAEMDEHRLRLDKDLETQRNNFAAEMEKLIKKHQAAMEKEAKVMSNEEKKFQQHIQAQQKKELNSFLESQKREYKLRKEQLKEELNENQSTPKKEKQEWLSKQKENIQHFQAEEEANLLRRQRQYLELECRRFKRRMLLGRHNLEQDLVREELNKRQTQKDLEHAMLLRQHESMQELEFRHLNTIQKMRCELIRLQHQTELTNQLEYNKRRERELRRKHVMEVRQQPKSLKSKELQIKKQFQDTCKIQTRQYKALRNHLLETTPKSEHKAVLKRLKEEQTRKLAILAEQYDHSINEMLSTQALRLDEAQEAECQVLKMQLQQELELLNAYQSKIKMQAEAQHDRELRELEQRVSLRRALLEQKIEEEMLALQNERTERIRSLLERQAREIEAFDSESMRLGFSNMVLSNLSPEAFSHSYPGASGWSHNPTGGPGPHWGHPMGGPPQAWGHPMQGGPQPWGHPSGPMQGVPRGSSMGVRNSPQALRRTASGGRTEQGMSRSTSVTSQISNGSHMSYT

The target in the next assay is T2, EphB3(h) (Homo sapiens, UniProt P54753).
T2 sequence (P54753 34-998): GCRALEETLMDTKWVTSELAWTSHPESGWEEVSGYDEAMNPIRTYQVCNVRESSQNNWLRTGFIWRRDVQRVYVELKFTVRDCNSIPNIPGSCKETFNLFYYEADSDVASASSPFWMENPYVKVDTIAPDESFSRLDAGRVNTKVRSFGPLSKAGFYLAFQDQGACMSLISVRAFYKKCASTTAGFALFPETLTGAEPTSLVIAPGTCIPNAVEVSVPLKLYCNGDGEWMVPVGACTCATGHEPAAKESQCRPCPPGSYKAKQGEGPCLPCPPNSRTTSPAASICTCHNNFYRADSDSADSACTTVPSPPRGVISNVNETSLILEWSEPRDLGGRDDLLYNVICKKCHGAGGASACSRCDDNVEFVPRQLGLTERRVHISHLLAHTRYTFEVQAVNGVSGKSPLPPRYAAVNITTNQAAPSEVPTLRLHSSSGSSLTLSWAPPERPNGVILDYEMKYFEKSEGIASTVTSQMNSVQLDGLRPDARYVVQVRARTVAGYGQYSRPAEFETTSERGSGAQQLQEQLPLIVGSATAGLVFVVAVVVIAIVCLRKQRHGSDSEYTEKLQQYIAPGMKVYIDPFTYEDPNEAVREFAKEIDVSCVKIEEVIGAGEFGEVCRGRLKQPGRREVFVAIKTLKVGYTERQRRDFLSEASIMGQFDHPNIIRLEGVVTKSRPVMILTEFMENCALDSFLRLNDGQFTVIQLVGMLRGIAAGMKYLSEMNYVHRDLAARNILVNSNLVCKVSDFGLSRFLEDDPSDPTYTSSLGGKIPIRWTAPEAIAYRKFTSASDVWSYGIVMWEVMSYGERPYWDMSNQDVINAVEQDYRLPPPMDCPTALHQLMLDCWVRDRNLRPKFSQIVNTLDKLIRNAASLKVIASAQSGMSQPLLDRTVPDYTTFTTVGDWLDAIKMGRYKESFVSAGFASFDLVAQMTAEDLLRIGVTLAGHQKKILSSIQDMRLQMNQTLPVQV
The conditions noted are these: 100 μM.

For a further assay, the target named is T3, NEK2(h) (Homo sapiens, UniProt P51955).
T3 sequence (P51955 1-445): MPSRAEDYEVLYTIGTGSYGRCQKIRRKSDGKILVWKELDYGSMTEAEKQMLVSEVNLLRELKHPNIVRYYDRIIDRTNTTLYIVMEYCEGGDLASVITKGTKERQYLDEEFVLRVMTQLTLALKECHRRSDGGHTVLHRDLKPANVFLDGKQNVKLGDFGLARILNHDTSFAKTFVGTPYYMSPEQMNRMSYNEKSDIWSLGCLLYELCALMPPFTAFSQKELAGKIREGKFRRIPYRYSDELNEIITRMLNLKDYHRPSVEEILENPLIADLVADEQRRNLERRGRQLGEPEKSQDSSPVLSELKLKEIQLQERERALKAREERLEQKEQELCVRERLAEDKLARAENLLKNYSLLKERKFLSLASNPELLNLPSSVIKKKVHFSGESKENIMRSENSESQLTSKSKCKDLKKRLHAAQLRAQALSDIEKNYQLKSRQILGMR
The conditions noted are these: 100 μM.

BTK(R28H)(h), sequence (Q06187 whole entry R28H): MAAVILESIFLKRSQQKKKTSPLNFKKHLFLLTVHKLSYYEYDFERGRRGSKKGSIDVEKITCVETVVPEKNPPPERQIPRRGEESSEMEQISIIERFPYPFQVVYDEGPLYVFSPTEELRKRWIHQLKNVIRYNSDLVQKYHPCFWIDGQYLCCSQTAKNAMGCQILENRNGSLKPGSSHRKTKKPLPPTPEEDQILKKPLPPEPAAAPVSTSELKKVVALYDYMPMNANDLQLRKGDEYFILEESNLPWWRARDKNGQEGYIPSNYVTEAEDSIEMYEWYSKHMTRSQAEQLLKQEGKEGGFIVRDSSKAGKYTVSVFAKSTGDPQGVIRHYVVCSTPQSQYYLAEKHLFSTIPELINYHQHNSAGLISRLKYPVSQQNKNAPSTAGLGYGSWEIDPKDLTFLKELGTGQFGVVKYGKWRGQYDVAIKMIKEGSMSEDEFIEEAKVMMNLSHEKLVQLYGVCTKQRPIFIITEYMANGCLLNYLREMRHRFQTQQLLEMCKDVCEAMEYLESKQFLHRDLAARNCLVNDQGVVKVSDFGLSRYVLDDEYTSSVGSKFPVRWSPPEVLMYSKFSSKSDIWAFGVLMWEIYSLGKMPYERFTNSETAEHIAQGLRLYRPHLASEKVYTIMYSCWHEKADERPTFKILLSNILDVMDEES

As to H-YARAAARQARAKALARQLGVAA-OH [MMI-0100], the activity at 100 µM came out at 91% on BTK(R28H)(h) and 99% at TAO1(h).
For “HRRIKAWLKKIKALARQLGVAA (Mammalian) [MMI-0500]”, the “% activity” value came to 10% with BTK(R28H)(h) (100 μM), 79% in the assay with EphB3(h), 0% in the assay with NEK2(h) and 24% with TAO1(h) (100 μM).
Consider “YARAAARQARAKALNRQLGVA (Mammalian) [MMI-0200]”, for which the results for the “% activity” value with EphB3(h) and with NEK2(h) were 128% and 97%, respectively.
